Test results from US20250090676A1.

Biological target: human folate receptor alpha on cells (human) (UniProt P15328)
Assay: cell-based or functional assay

human folate receptor alpha on cells (human), sequence (P15328 25-234 limits assumed): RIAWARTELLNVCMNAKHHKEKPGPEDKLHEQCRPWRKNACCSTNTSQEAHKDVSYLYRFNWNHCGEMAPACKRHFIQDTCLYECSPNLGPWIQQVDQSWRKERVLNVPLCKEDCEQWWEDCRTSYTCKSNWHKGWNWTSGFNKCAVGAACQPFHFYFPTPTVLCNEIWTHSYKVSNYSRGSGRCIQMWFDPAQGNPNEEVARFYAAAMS

“ADC Molecule 21 (Mov19-sulfo-SPDB-DM4) (antibody)” gave a fold shift of cell killing EC50 on Igrov1 cells on addition of naked antibody of 3 fold.
